Laboratory results reported in the nanobody polyreactivity screen of Harvey et al. (2022).

Test: yeast display, Sf9 membrane polyspecificity reagent, FACS + sequencing; frameworks hold sequencing errors
In short: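 Nanobodies came from a synthetic yeast display library in Saccharomyces cerevisiae BJ5465, induced with galactose for 36–48 hours and stained for 1 hour at 4 °C with 10% biotinylated, detergent-solubilized Sf9 membrane reagent. Cells were enriched on streptavidin microbeads and then FACS-sorted, with low and high (top ~1%) gates set on anti-HA fluorescence for expression and streptavidin fluorescence for reagent binding. Each polyreactivity label reflects the gate a clone came from. Genes were amplified by colony PCR, sequenced by MiSeq 2 × 250 and filtered by CDR length.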

Row | Sequence | polyreactivity (PSR sort gate)
1 | QVQLVESGGGLVQAGGSLRLSCAASGFIFLNNTLGWYRQAPGKERELVAAISWSGGSTYYADSVKGRFTISRDNAKYSVYLQMNSLKPEDTAVYYCAADVKHTTEYDYWGKGTQVTVSS | high polyreactivity
2 | QVQLVESGGGLVQAGGSLRLSCAASGFIFLRYVMGWYRQAPGKERELVAVITGTGVRTYADSVKGRFTISRDNAKNTVYLQMTSLKPEDTAVYYCAVVSSSREVEVLDFDYWGLGTQVTVSS | low polyreactivity
3 | QVQLVESGGGLVQAGGSLRLSCAASGFIFLTNSMGWYRQAPGKERELVAAIRWSDDGTYYADSVKGRFTISRDNAKNTVYLQMNSLKPEDTEVYYCAKEVRNTVTTTGQGTQVTVSS | low polyreactivity
4 | QVQLVESGGGLVQAGGSLRLSCAASGFIFLYNAMGWYRQAPGKERELVATISTGGDTTYADSVKGRFTISRDNAKNTVYLQMNSVKPEDTAVYYCAKLDLSIFRWDTEFGLYDYWGQGTQVTVLS | low polyreactivity
5 | QVQLVESGGGLVQAGGSLRLSCAASGFIFNAYPMGWYRPAPGKERELVAAISSSGGRTYYADSVKGRFTISRDNAKNTVYLHMNSLKPEDTAVYYCNADKNSIIKLRGYYYWGQGTQVTVSS | high polyreactivity
6 | QVQLVESGGGLVQAGGSLRLSCAASGFIFNAYVMGWYRQAPGKERELVAAITASGGSTYYADSVKGRFTISRDNAKNTVYLQMNSLKPEDTAVYYCAAAHPYDSRFDYWGQGTQVTVSS | high polyreactivity
7 | QVQLVESGGGLVQAGGSLRLSCAASGFIFNINTMGWYRQAPGKERELVAAISGSGDSTYYADSVKGRFTISRDNAKNTVYLQMNSLKPEDTAVYYCNAGPWWYLHEYDYWGQGTQVTVSS | low polyreactivity
8 | QVQLVESGGGLVQAGGSLRLSCAASGFIFNKYAMGWYRQAPGKERELVATIRRDGSTNYADSVKGRFTISRDNAKNTVYLQMNSQKPEDTAVYYCAVRPYYWSRDYYWGQGTQVTVSS | high polyreactivity
9 | QVQLVESGGGLVQAGGSLRLSCAASGFIFNLYAMGWYRQAPGKERELVAVISGSGVRTYYADSVKGRFTISRDNAKNTVYLQMNSLKPEDTAVYYCAARTYGGYEYWGQGTQVTVSS | high polyreactivity
10 | QVQLVESGGGLVQAGGSLRLSCAASGFIFNLYAMGWYRQAPGKERELVAVITGSGVRTYYADSVKGRFTISRDNAKNTVYLQMNSLKPEDTAVYYCAARTYGGYEYWGQGTQVTVSS | high polyreactivity
11 | QVQLVESGGGLVQAGGSLRLSCAASGFIFNSYAMGGYRQAPGKERELVAAISRRGSSTYYADSVKGRFTISRDNAKNTVYLQMKSLKPEDTAVYYCAKRDLSTSWYLRDYWGQGTQVTVSS | high polyreactivity
12 | QVQLVESGGGLVQAGGSLRLSCAASGFIFNTMGWYRQAPGKERELVATISWSDGSTYYADSVKGRFTISRDNAKNTVYLQMNSLKPEDTAVYYCAADSRPWGSSMDSWGQGTQVTVSS | low polyreactivity
13 | QVQLVESGGGLVQAGGSLRLSCAASGFIFNTMGWYRQAPGKERELVATMSWSDGSTYYADSVKGRFTISRDNAKNTVYLQMNSLKPEDTAVYYCAATTDALVGRPRYDYWGQGTQVTVSS | low polyreactivity
14 | QVQLVESGGGLVQAGGSLRLSCAASGFIFNTNAMRWYRQAPVKEREFDAAITSSDGNTYYADSVKGRFTISRDNAKNTVYLQMNSLKPEDTAVYYCAADARTKSYVRLYDYWGQGTQVTVSS | low polyreactivity
15 | QVQLVESGGGLVQAGGSLRLSCAASGFIFNYNAMGWYRQAPGKERELVAAIRTSSGSTYYADSVKGRFTISRDNAKNTVYLQMNSLKPEDTAVYYCAKTRYSTYSPIYYYWGQGTQVTVSS | high polyreactivity
16 | QVQLVESGGGLVQAGGSLRLSCAASGFIFNYYDMGWYRQAPGKERELVAAITYSVGSTYYADSVKGRFTISRDNAKNTVYLQMNSLKPEDTAVYYCNKDFLYGIYSYDYWGQGTQVTVSS | high polyreactivity
17 | QVQLVESGGGLVQAGGSLRLSCAASGFIFPAYAMGWYRQAPGKEMALVAAITSGGSTNYADSVKGRFTISRDNAKNTVYLQMNSLKPEDTAVYYCAADFDSILSVRSYRSRWYDYWGQGTQVAVSS | low polyreactivity
18 | QVQLVESGGGLVQAGGSLRLSCAASGFIFPDNAMGWYRQAPGKERELVATITSGGNTYYADSVKGRFTISRDNAKNTVYIQMNSLKPEDTAVYYSAAEWDYYDYDWYIAWTIDYWGQGTQVTVSS | low polyreactivity
19 | QVQLVESGGGLVQAGGSLRLSCAASGFIFPDYGMGSYRQAPGKERELVAAIYRNGVSTYYADSVKGRFTISRDNAKNTVYLQMKSLKPEDTAVYYCAARFYRIRRVSKSGYYWGLGTQVTVSS | low polyreactivity
20 | QVQLVESGGGLVQAGGSLRLSCAASGFIFPGYAMGWYRQAPGKEREFVAVISRSGVRTYYADSVKGRFTISRDNAKNTVYLQMNSLKPEDTAVYYCAARYYSTDLEYWGQGTQVTVSS | low polyreactivity
21 | QVQLVESGGGLVQAGGSLRLSCAASGFIFPLYTMGWYRQAPGKERELVAAISWIGGRTYYADSVKGRFTISRDNAKNTVYLQMNSLKPEDSAVYYCAKDPTGGGYGYDYWGQGTQVTVSS | low polyreactivity
22 | QVQLVESGGGLVQAGGSLRLSCAASGFIFPNKAMGWYRQAPGKERELVARISYGGGDTHYADSVKGRFTISRDNAKNTVYLQMNSLKPEDTAVYYCSYYYWGQGTQVTVSS | low polyreactivity

Row | Sequence | polyreactivity (PSR sort gate)
23 | QVQLVESGGGLVQAGGSLRLSCAASGFIFPRYFMGLYRQAPGKERELVAAINSDISTNYADSVKWRFTISRDNAKNTVYLQMNSLKPEDTAVYYCAADRWDDPWEFDYWGQCTQVTVSS | low polyreactivity
24 | QVQLVESGGGLVQAGGSLRLSCAASGFIFPWNAMAWYRQAPRKERELVAAISFSGGSTYYADSVKGRFTISRDNAKNTVYLQMNSLKPEDTAVYYCAKRTWDLRRTRHYYWGQGTQVTVSS | low polyreactivity
25 | QVQLVESGGGLVQAGGSLRLSCAASGFIFPYNTMGWYRQATAKERELVAAIRYSAGRTYYADSVKGRFTISRDNAKNTVYLQMNSLKPEDTEVYYCNGVSSGDMDYWGQGTQVTVSS | high polyreactivity
26 | QVQLVESGGGLVQAGGSLRLSCAASGFIFPYYAMGWYRQAPGKERELVAAISGSGGSTYYADSVKGRFTISRDNANYTVYLQMNSLKPEDTAVYYCAASARRLNMGYWGQGTQVTVSS | high polyreactivity
27 | QVQLVESGGGLVQAGGSLRLSCAASGFIFQGNAKGWYRQAPGKERELVAAITRGGGRTYYADSVKGRFTISRDNSKNTVYLQMNSLKPEDSAVNYCNAVGRSKYDYWGQGTQVTVSW | high polyreactivity
28 | QVQLVESGGGLVQAGGSLRLSCAASGFIFQIYAMGWYRQAPGKERELVAAISSGGSTNYADSVKGRFTISRDNAKNTVYVQMNSMKPEDTAVYYCAAATHYWYFYSFKDKSGFRGYYWGQGTQVTVSS | high polyreactivity
29 | QVQLVESGGGLVQAGGSLRLSCAASGFIFQIYPMGWYRQAPGKERELVAAISSGGSTNYADSVKGRFTISRDNAKNTVYLQMNSLKPEDTAVYYCAAATHYWYFYSFKDKSGFRGYYWGQGTQVTVSS | high polyreactivity
30 | QVQLVESGGGLVQAGGSLRLSCAASGFIFQRYAMGWYRQAPGKERELVAAISSGGGTNYADSVKGRFTISRDNAKNTVYLQMNSLKPEDTAVYYCARPYYVYSQSSDYWGQGTQVTVSS | low polyreactivity
31 | QVQLVESGGGLVQAGGSLRLSCAASGFIFQRYAMGWYRQAPGKERELVAAISSSGGRTSYADSVKGRFTISRDNAKNTVYLQMNSLKPEDTAVYYCAAYPQGRWYVVWSGDYWGQGTQVTVSS | high polyreactivity
32 | QVQLVESGGGLVQAGGSLRLSCAASGFIFQTNVMGWYRQAPGKERELVAAISSGDSTYYADSVKGRFTISRDNAKNTVYLQLNSLKPEDTAVYYCAADVLGTTTTVGGFNYWGQGTQVTVSS | low polyreactivity
33 | QVQLVESGGGLVQAGGSLRLSCAASGFIFQYNAMGWYRQAPGKERELVAAITSRGGSTYYADSVKGRFTISRDNAKNTVFLQMNSLKPEDTAVYYCATRRSYLADYWGQGTQVTVSS | high polyreactivity
34 | QVQLVESGGGLVQAGGSLRLSCAASGFIFRANAMGLYREAPGKERELVATISRSGGSTSYADSVKGRFTISRDNAKNTVYLQMNSLKPEDTAVYYCNKRTPYLRPIRDYWGQGTQVTVSS | high polyreactivity
35 | QVQLVESGGGLVQAGGSLRLSCAASGFIFRDNAMGWYRQAHGKERELVASIRSSGGRTYYADSVKGRFTISRDNAKNTVYLQMNSLKPEDTAVYYCARRWYPVTPYARMYYWGQGTQVTVSS | low polyreactivity
36 | QVQLVESGGGLVQAGGSLRLSCAASGFIFRDNAMGWYRQAPGKERELVAAISKSGGRTYYADSVKGRFTISRDNAKNTVYLQMNCLKPEDTAVYYCAADAYHFGRMDYWGQGTQVTVSS | high polyreactivity
37 | QVQLVESGGGLVQAGGSLRLSCAASGFIFRDYAMGWYRQAPGKEREFVAAITSRGGSTYYADSVKGRFTISRDNAKNTVYLQMNSLKPEDTAVYYCNRYWWAYGEYDYWGQGTQVTVSS | high polyreactivity
38 | QVQLVESGGGLVQAGGSLRLSCAASGFIFRDYAMGWYRQAPGKERELVAAISWSSDSTYYADSVKWRFTISRDNAKNTVYLQMNSLKPEDTAVYYCAAKGLRGYWWGFDYWGQGTQVTVSS | low polyreactivity
39 | QVQLVESGGGLVQAGGSLRLSCAASGFIFRFNAMGWYRQAPGKERELVAVIRWSSGSTYYADSVKGRFTISRDNAKNTVYLQMNSLKPEDTAVYYCAAYVVPAYYYWGQGTQVTVSS | low polyreactivity
40 | QVQLVESGGGLVQAGGSLRLSCAASGFIFRGKAMGWYRQAPGKERELVAAISSRGGSTYYADSVKGRFTISRDNAKNSVYLQMNSLKPEDTAVYYCAAGSTSGYFRYYYWGQGTQVTVSS | high polyreactivity
41 | QVQLVESGGGLVQAGGSLRLSCAASGFIFRINAMGWYRQAPGKERELVARITSGGSTYYADSVKGRFTISRDNAKNTVYLQMNSLKPEDTAVYYCAARVKYYGSQSRYYWGQVTQVTVSS | high polyreactivity
42 | QVQLVESGGGLVQAGGSLRLSCAASGFIFRKNAMGWYRQAPGKERELVAANSQSGGSTYYADSVKGRFTISRDNAKNTVYLQMNSLKPEDTAVYYCAARYDLPNWVGGREYNYWGQGTQVTVSS | high polyreactivity
43 | QVQLVESGGGLVQAGGSLRLSCAASGFIFRKYAMGWFRQAPGKERELVAAISRGGGSTYYADSVKGRFTISRDNAKNTVYLQMNSLKPEDTAVYYCAVGIVQRDSRYYYWGQGTQVTVSS | high polyreactivity
